Laboratory results as given in patent US20030165934.

Target: T1, recombinant human Rad17 protein tagged with a Flag epitope at its N terminus, purified from baculovirus infected insect cells
T1 chain: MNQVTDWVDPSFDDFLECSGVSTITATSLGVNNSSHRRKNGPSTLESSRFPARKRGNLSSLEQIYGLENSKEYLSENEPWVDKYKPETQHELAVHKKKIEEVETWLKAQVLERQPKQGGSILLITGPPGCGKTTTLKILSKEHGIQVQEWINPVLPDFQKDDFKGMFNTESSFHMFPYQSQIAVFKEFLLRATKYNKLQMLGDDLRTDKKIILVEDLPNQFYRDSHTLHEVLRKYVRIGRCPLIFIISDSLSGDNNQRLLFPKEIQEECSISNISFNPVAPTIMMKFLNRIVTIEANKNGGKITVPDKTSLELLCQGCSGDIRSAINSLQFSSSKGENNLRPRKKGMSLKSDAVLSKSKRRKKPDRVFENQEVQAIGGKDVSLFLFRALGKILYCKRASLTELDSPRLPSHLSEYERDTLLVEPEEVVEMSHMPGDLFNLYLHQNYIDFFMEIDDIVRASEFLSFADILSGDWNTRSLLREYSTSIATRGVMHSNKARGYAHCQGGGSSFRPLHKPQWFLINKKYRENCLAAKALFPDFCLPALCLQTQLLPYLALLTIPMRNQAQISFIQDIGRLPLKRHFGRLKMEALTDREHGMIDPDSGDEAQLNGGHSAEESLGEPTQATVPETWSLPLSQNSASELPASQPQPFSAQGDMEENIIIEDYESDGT

B1: ATR-ATRIP complex reconstituted in vitro from purified ATR and purified ATRIP (protein)
chain 1: not shown
chain 2: MAGTSAPGSKRRSEPPAPRPGPPPGTGHPPSKRARGFSAAAAPDPDDPFGAHGDFTADDLEELDTLASQALSQCPAAARDVSSDHKVHRLLDGMSKNPSGKNRETVPIKDNFELEVLQAQYKELKEKMKVMEEEVLIKNGEIKILRDSLHQTESVLEEQRRSHFLLEQEKTQALSDKEKEFSKKLQSLQSELQFKDAEMNELRTKLQTSERANKLAAPSVSHVSPRKNPSVVIKPEACSPQFGKTSFPTKESFSANMSLPHPCQTESGYKPLVGREDSKPHSLRGDSIKQEEAQKSFVDSWRQRSNTQGSILINLLLKQPLIPGSSLSLCHLLSSSSESPAGTPLQPPGFGSTLAGMSGLRTTGSYDGSFSLSALREAQNLAFTGLNLVARNECSRDGDPAEGGRRAFPLCQLPGAVHFLPLVQFFIGLHCQALQDLAAAKRSGAPGDSPTHSSCVSSGVETNPEDSVCILEGFSVTALSILQHLVCHSGAVVSLLLSGVGADSAAGEGNRSLVHRLSDGDMTSALRGVADDQGQHPLLKMLLHLLAFSSAATGHLQASVLTQCLKVLVKLAENTSCDFLPRFQCVFQVLPKCLSPETPLPSVLLAVELLSLLADHDQLAPQLCSHSEGCLLLLLYMYITSRPDRVALETQWLQLEQEVVWLLAKLGVQSPLPPVTGSNCQCNVEVVRALTVMLHRQWLTVRRAGGPPRTDQQRRTVRCLRDTVLLLHGLSQKDKLFMMHCVEVLHQFDQVMPGVSMLIRGLPDVTDCEEAALDDLCAAETDVEDPEVECG
B1 was tested, and the “phosphorylated Rad17 on DNA (Ser635P)” value was “human replication protein A (RPA) stimulates the phosphorylation of Rad17 by the ATR-ATRIP complex”.
